For experiment [1], the target named is MERS-CoV spike protein, recombinant soluble ectodomain trimer (MERS-CoV) (UniProt K9N5Q8). In words: SEC.
Experiment [2] concerns the target SARS-CoV spike protein, recombinant soluble ectodomain trimer (SARS-CoV) (UniProt P59594). Description: SEC.

As to “MERS-CoV spike protein, recombinant soluble ectodomain trimer (from UniProt K9N5Q8 18-1296) (domain or fragment)”, in experiment [1], the stoichiometry N is 3.

As to “SARS-CoV spike protein, recombinant soluble ectodomain trimer (from UniProt P59594 14-1195) (domain or fragment)”, the stoichiometry N in experiment [2] came out at 3.

For the origin of these results see paper doi:10.1101/2020.06.22.20137695.
